Assay results taken from patent US20250326826A1 (CENTRO DE INGENIER A GEN TICA Y BIOTECNOLOG A, published 2025).
Where two headings read alike, the source gives them in different places.

T1: GST-hVEGF121 (human, UniProt P15692-9 27-147)
T1 construct: plate coating of the VEGF ELISAs; also called human VEGF; not shown: glutathione S-transferase (GST) fusion partner
T1 sequence (looked up): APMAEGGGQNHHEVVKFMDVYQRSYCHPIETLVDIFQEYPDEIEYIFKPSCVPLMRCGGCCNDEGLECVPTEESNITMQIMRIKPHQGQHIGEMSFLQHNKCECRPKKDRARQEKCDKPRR


Experiments:
GST-hVEGF121 [1] = biological target: T1, GST-hVEGF121; test: competition ELISA, coated GST-hVEGF, competitor Fc-VEGFR2
Method: (§1) The ability of VHHs to hinder receptors for binding to their ligand was assessed by ELISA, for which 96-well plates (NUNC, USA) were coated with GST-hVEGF or bFGF and blocked as described in the previous section. Serial 1:2 dilutions of the purified VHHs, from […] to […], were added and the plates and incubated for 1 h at 37° C. In this step, some wells were left where only PBS-milk was added. […] After 45 min incubation at 37° C., plates were washed with PBS-0.05% Tween. To detect receptor binding, HRP-conjugated anti-human IgG antibody was added, diluted 1:5000 in PBS-0.5% milk. After incubation for 1 h at 37° C., the plates were washed with PBS-Tween, and TMB was added. The reaction was stopped after 10 min. Wells incubated with the receptors without the addition of the antibody fragments were taken as reference for maximum binding in the absence of competitor. In this assay, in the case of inhibition of the VEGF/VEGFR axis, the CIGB166a antibody fragment was used as a positive control, and an anti-FGF polyclonal antibody was used for the FGF/FGFR axis. The percentage of inhibition of receptor binding to its ligand was calculated as follows: […]
The biological effect of VEGF is a consequence of its binding to two fundamental receptors (VEGFR1 and VEGFR2), so for a polypeptide that binds to VEGF to be effective in the therapeutic setting, it must block these interactions (Shibuya, Cell Structure and Function, 2001: 26: 25-35). The ability of Nb-V1 to compete with receptors 1 and 2 for binding to its ligand (VEGF) was assessed by solid phase ligand competition ELISA, as described above.

Recombinant human bFGF [2] = biological target: T2, Recombinant human bFGF (human, UniProt P09038 143-288, limits assumed); test: ELISA, coated human bFGF
T2 construct: Bought (Sigma); also called hFGF-2; human basic fibroblast growth factor
T2 sequence (P09038 143-288 limits assumed): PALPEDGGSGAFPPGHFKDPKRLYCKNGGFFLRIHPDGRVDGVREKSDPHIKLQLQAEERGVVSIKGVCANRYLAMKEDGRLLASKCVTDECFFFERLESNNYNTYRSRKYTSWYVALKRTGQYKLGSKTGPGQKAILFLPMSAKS
Method: (§2) The 96-well plates were coated with 100 μL/well of a solution of GST-hVEGF121, GST-mVEGF120, or GST at a concentration of 20 μg/mL, or with a solution of VEGFKDR- at a concentration of 10 μg/mL, or hFGF-2 or mFGF-2 at a concentration of 5 μg/mL in 1×PBS for 16 hours at 4° C. After the plates were blocked with PBS-5% skim milk for one hour, 1:2 serial dilutions of the purified VHHs were added, starting at 2 μg/mL in PBS-0.5% skim milk. The plates were incubated for 1 hour at 37° C. and after several washes, the monoclonal antibody 9E10, specific for c-myc, was added. After one hour of incubation at 25° C. the plates were washed thoroughly. The binding of the fragment to the antigen in the solid phase was detected by the peroxidase activity using 100 μL/well of TMB. The reaction was stopped with 50 μL/well of stop solution, and absorbance values at 450 nm were determined in a microtiter plate reader.
SEQ ID NO: 18 and SEQ ID NO: 19, and the bivalent Nb-VV6 and Nb-FF2, with sequences identified as SEQ ID NO: 20 and SEQ ID NO: 21, were expressed and purified as described in the Example 1. In all cases, the purity and identity of the proteins were verified by SDS-PAGE 12% and anti-polyhistidine Western Blot. […] The experimental mass of the polypeptides and the arrangement of the disulfide bridges were checked by ESI/MS-MS. The experimental and theoretical mass, for each polypeptide coincided, with errors less than 0.0015% in all cases, and the formation of intramolecular bridges between C22-C101 and C168-C247 was verified. […] The biological activity of the polypeptides was evaluated by ELISA for recognition of the VEGF and bFGF antigens, and by their ability to displace VEGF and bFGF binding to their respective VEGFR2 and FGFR1 receptors. […] Similarly, it was shown that the ability to displace the binding of antigens by their receptors was not affected.

[3] = biological target: bFGF (soluble stimulus added to cell cultures); test: cell-based or functional assay
[4] = biological target: VEGF (soluble stimulus added to cell cultures); test: cell-based or functional assay
Sequence of VEGF (soluble stimulus added to cell cultures) (P15692 whole entry): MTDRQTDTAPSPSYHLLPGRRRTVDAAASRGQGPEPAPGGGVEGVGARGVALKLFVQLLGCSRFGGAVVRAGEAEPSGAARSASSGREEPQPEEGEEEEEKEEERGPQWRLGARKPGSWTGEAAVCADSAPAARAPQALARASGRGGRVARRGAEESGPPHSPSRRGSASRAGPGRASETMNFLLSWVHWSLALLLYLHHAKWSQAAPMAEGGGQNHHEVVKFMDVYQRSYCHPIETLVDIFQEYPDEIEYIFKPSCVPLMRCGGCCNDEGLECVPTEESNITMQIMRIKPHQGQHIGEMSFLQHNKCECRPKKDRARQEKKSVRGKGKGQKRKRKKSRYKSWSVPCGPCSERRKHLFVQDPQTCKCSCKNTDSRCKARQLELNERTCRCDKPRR

GST-hVEGF121 [5] = biological target: T1, GST-hVEGF121; test: ELISA, coated GST-hVEGF
Method: as §2

[6] = biological target: Human VEGF (dendritic cell assay) (human, UniProt P15692-4 27-191, limits assumed); test: cell-based or functional assay
[7] = biological target: VEGF (soluble stimulus added to cell cultures); test: cell-based or functional assay; remark: listed apart in the source
Recombinant human bFGF [8] = biological target: T2, Recombinant human bFGF; test: competition ELISA, coated bFGF, competitor Fc-FGFR1
Method: as §1

GST-hVEGF121 [9] = biological target: T1, GST-hVEGF121; test: competition ELISA, coated GST-hVEGF, competitor Fc-VEGFR2; remark: listed apart in the source
GST-hVEGF121 [10] = biological target: T1, GST-hVEGF121; test: ELISA, coated GST-hVEGF; remark: listed apart in the source
Recombinant human bFGF [11] = biological target: T2, Recombinant human bFGF; test: competition ELISA, coated bFGF, competitor Fc-FGFR1; remark: listed apart in the source
Recombinant human bFGF [12] = biological target: T2, Recombinant human bFGF; test: ELISA, coated human bFGF; remark: listed apart in the source

Binder	IC50 (GST-hVEGF121 [1]) [nM]	EC50 (Recombinant human bFGF [2]) [nM]	IC50, proliferation of HDMEC cells +bFGF (10 ng/ml) [3] [nM]	IC50, proliferation of HDMEC cells +VEGF (5 ng/ml) [4] [nM]	EC50 (GST-hVEGF121 [5]) [nM]	IC50 (Recombinant human bFGF [8]) [nM]	IC50 (GST-hVEGF121 [9]) [nM]	EC50 (GST-hVEGF121 [10]) [nM]	IC50 (Recombinant human bFGF [11]) [nM]	EC50 (Recombinant human bFGF [12]) [nM]	also measured
Nb-FV1 (bispecific antibody, Bispecific tandem VHH (bFGF and VEGF); with c-myc and histidine tag) QVQLVESGGGLVQPGGSLRLSCAASGTEDGRLLTLGGSWFRQAPGQGLEAVAAIGAGDRGGATYYADSVKGRFTISRDNSKNTLYLQMNSLRAEDTAVYYCTALYERQPQLAATKVARKWGQGTLVTVSSAHHSEDPSSKAPKAPAQVQLVESGGGLVQPGGSLRLSCAASGNSAEDRLYNSYTWFRQAPGQGLEAVAAISSHFSAGLTYYADSVKGRFTISRDNSKNTLYLQMNSLRAEDTAVYYCEITSHASHNDAWSTPRTVWGQGTLVTVSSAAAGSEQKLISEEDLNSHHHHHH	28.3	11.5	122	129	4.59	131					CD86 (MFI) on dendritic cells +VEGF +LPS, VHH 1 µg/mL [6]: 2030 MFI; CD86 (MFI) on dendritic cells +VEGF +LPS, VHH 5 µg/mL [6]: 3200 MFI; CD86 (MFI) on dendritic cells +VEGF +LPS, VHH 10 µg/mL [6]: 17500 MFI; MHCII (MFI) on dendritic cells +VEGF +LPS, VHH 1 µg/mL [6]: 4980 MFI; MHCII (MFI) on dendritic cells +VEGF +LPS, VHH 5 µg/mL [6]: 6000 MFI; MHCII (MFI) on dendritic cells +VEGF +LPS, VHH 10 µg/mL [6]: 17500 MFI; PD1 expression (%) in CD8+ cells treated with VEGF, VHH 1 µg/mL [7]: 63%; PD1 expression (%) in CD8+ cells treated with VEGF, VHH 5 µg/mL [7]: 55%; PD1 expression (%) in CD8+ cells treated with VEGF, VHH 10 µg/mL [7]: 40%
Nb-VF3 (bispecific antibody, Bispecific tandem VHH (VEGF and bFGF); with c-myc and histidine tag) QVQLVESGGGLVQPGGSLRLSCAASGNSAEDRLYNSYTWFRQAPGQGLEAVAAISSHFSAGLTYYADSVKGRFTISRDNSKNTLYLQMNSLRAEDTAVYYCEITSHASHNDAWSTPRTVWGQGTLVTVSSAHHSEDPSSKAPKAPAQVQLVESGGGLVQPGGSLRLSCAASGTEDGRLLTLGGSWFRQAPGQGLEAVAAIGAGDRGGATYYADSVKGRFTISRDNSKNTLYLQMNSLRAEDTAVYYCTALYERQPQLAATKVARKWGQGTLVTVSSAAAGSEQKLISEEDLNSHHHHHH	28.5	11.3	120	132	4.49	136					
Nb-V1\cmycH6 (VHH, Nb-V1 without c-myc tracer peptide and histidine tag) VHH: QVQLVESGGGLVQPGGSLRLSCAASGNSAEDRLYNSYTWFRQAPGQGLEAVAAISSHFSAGLTYYADSVKGRFTISRDNSKNTLYLQMNSLRAEDTAVYYCEITSHASHNDAWSTPRTVWGQGTLVTVSS							28.6	4.64			
Nb-F3\cmycH6 (VHH, Nb-F3 without c-myc tracer peptide and histidine tag) VHH: QVQLVESGGGLVQPGGSLRLSCAASGTEDGRLLTLGGSWFRQAPGQGLEAVAAIGAGDRGGATYYADSVKGRFTISRDNSKNTLYLQMNSLRAEDTAVYYCTALYERQPQLAATKVARKWGQGTLVTVSS									134	11.5	
Nb-VV6\cmycH6 (VHH, Nb-VV6 without c-myc tracer peptide and histidine tag) QVQLVESGGGLVQPGGSLRLSCAASGNSAEDRLYNSYTWFRQAPGQGLEAVAAISSHFSAGLTYYADSVKGRFTISRDNSKNTLYLQMNSLRAEDTAVYYCEITSHASHNDAWSTPRTVWGQGTLVTVSSAHHSEDPSSKAPKAPAQVQLVESGGGLVQPGGSLRLSCAASGNSAQDRLYNSYTWFRQAPGQGLEAVAAISSHFSAGLTYYADSVKGRFTISRDNSKNTLYLQMNSLRAEDTAVYYCEITSHASHNDAWSTPRTVWGQGTLVTVSS							5.23	1.78			
Nb-FF2\cmycH6 (VHH, Nb-FF2 without c-myc tracer peptide and histidine tag) QVQLVESGGGLVQPGGSLRLSCAASGTEDGRLLTLGGSWFRQAPGQGLEAVAAIGAGDRGGATYYADSVKGRFTISRDNSKNTLYLQMNSLRAEDTAVYYCTALYERQPQLAATKVARKWGQGTLVTVSSAHHSEDPSSKAPKAPAQVQLVESGGGLVQPGGSLRLSCAASGTEDGRLLTLGGSWFRQAPGQGLEAVAAIGAGDRGGATYYADSVKGRFTISRDNSKNTLYLQMNSLRAEDTAVYYCTALYERQPQLAATKVARKWGQGTLVTVSS									53.7	5.98	
